Assay results from patent US20220153854A1 (Ablynx, published 2022).

Experiments:
[1] = target: T1, human CD40L (human, UniProt P29965 113-261, limits assumed); assay: SPR (ProteOn XPR36), cytokine immobilised by amine coupling
T1 construct: also called hCD40L
T1 sequence (looked up): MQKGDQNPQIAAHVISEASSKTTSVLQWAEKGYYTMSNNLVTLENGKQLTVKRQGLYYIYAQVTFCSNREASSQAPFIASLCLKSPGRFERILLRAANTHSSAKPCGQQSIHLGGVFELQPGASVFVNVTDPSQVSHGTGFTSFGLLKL
Description: (§1) Absence of binding to OX40L and IL-13 related human cytokines was assessed via SPR (Proteon XPR36). As IL-13 related cytokine, IL-4 was assessed. As OX40L related targets, human TRAIL, CD30L, CD40L and RANKL were assessed.
(§2) To this end, the cytokines were immobilized on a ProteOn GLC sensor chip at 25 μg/mL for 600 s using amine coupling, with 80 seconds injection of EDC/NHS for activation and a 150-seconds injection of 1 M Ethanolamine HCl for deactivation (ProteOn Amine Coupling Kit. cat. 176-2410). Flow rate during activation and deactivation was set to 30 μl/min, and during ligand injection to 25 μl/min. The pH of the 10 mM acetate immobilization buffer was 6.0 for all cytokines, except for RANKL where the pH was 5.0.
(§3) Next, 1 μM of F027100187 was injected for 2 minutes and allowed to dissociate for 600 s at a flow rate of 45 μL/min. As running buffer PBS (pH7.4)+0.005% Tween 20 was used. As positive controls, 100 nM α-hIL-4, α-hTRAIL, α-hCD30L, α-hCD40L Ab and α-hRANKL VHH (Nanobody®, Nb) were injected. Interaction between F027100187 and the positive controls with the immobilized targets was measured by detection of increases in refractory index which occurs as a result of mass changes on the chip upon binding.

[2] = target: T2, human IL-4 (human, UniProt P05112 25-153); assay: as above
T2 construct: also called hIL-4
T2 sequence (looked up): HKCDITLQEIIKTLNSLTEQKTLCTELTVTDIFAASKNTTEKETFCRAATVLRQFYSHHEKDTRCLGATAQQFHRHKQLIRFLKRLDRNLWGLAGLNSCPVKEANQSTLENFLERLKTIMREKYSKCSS
Description: as §1, §2, §3

[3] = target: T3, human RANKL (human, UniProt O14788 140-317, limits assumed); assay: as above
T3 construct: also called hRANKL
T3 sequence (looked up): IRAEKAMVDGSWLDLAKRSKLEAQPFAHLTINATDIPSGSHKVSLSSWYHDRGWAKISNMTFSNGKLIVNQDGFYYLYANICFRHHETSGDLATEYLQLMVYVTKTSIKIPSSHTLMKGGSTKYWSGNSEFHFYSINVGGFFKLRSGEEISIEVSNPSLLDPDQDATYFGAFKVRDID
Description: as §1, §2, §3

[4] = target: T4, human TRAIL (human, UniProt P50591 114-281, limits assumed); assay: as above
T4 construct: also called hTRAIL
T4 sequence (P50591 114-281 limits assumed): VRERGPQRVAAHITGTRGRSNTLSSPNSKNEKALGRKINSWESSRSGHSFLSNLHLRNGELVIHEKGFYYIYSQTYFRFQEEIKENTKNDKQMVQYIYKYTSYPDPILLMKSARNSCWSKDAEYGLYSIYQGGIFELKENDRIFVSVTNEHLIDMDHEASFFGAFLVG
Description: as §1, §2, §3

[5] = target: T5, human CD30L (human, UniProt P32971 63-234, limits assumed); assay: as above
T5 construct: also called hCD30L
T5 sequence (looked up): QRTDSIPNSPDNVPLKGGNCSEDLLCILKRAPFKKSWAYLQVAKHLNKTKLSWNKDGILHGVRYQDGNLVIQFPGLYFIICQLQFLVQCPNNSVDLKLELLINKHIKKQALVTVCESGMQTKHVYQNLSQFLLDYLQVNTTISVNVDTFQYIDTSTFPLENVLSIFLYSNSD
Description: as §1, §2, §3

[6] = target: T6, membrane bound cyno OX40L on CHO-KI cells (cynomolgus monkey, UniProt G7NVH7 1-183); assay: flow cytometry on fixed CHO-KI cells expressing cyno OX40L, 48 h incubation
T6 construct: whole, on cells; also called CHO-KI cells expressing cyno OX40L
T6 sequence: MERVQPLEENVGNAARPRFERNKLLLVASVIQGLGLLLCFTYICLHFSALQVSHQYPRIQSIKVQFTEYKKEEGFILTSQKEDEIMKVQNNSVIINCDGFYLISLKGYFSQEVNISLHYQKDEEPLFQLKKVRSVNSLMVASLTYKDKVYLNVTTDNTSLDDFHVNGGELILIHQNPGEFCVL
Description: Briefly, cells were fixed with 4% paraformaldehyde and 0.1% Glutaraldehyde in PBS, seeded at a density of 1×10⁴ cells/well and incubated with a dilution series of ISVD F027100187 or reference compound anti-hOX40L mAb, named Comparator 3, starting from 100 nM […] 0.5 μM, for 48 hours at room temperature. Comparator 3 is a standard conventional monoclonal antibody directed against human OX40L, which is used as a reference throughout the Examples 1 to 12 described herein. Cells were washed 3 times and subsequently incubated with an anti-VHH mAb (ABH00119) for 30 min at 4° C., washed again, and incubated for 30 min at 4° C. with a goat anti-mouse PE or FITC labeled antibody. Samples were washed and resuspended in FACS Buffer (D-PBS with 10% FBS and 0.05% sodium azide supplemented with 5 nM TOPRO3). Cell suspensions were then analyzed on an iQuescreener. EC50 values were calculated using GraphPad Prism.

- binding result [1]: no binding (tested: 1 µM)
- binding result [2]: no binding (tested: 1 µM)
- binding result [3]: no binding (tested: 1 µM)
- binding result [4]: no binding (tested: 1 µM)
- binding result [5]: no binding (tested: 1 µM)
- EC50 [6]: 0.0363 nM
B1: ISVD construct F027100187 (other)
chain: DVQLVESGGGVVQPGGSLRLSCAASRSIGRYDRMGWYRHRPGEPRELVATITGGSSINYGDSVKGRFTISIDNSKNTVYLQMNSLRPEDTALYYCNFNKYQISRDTWGQGTLVTVSSGGGGSGGGSEVQLVESGGGVVQPGGSLRLSCAASGRTFSSYRMGWFRQAPGKEREFVAALSGDGYSTYTANSVKGRFTISRDNSKNTVYLQMNSLRPEDTALYYCAAKLQYVSGWSYDYPYWGQGTLVTVSSGGGGSGGGSEVQLVESGGGVVQPGGSLRLSCAASGFTFRSFGMSWVRQAPGKGPEWVSSISGSGSDTLYADSVKGRFTISRDNSKNTLYLQMNSLRPEDTALYYCTIGGSLSRSSQGTLVTVSSGGGGSGGGSEVQLVESGGGVVQPGGSLRLSCAASGFTFNNYAMKWVRQAPGKGLEWVSSITTGGGSTDYADSVKGRFTISRDNSKNTLYLQMNSLRPEDTALYYCANVPFGYYSEHFSGLSFDYRGQGTLVTVSSA
notes: Tetravalent, trispecific single-chain construct of four VHH (ISVD) domains: one against OX40L, two against IL-13, one against serum albumin; also called F0271000187; F27100187
